B1: Bovine Transferrin: bovine transferrin (protein, UniProt Q29443 20-704, looked up)
Serotransferrin: DPERTVRWCTISTHEANKCASFRENVLRILESGPFVSCVKKTSHMDCIKAISNNEADAVTLDGGLVYEAGLKPNNLKPVVAEFHGTKDNPQTHYYAVAVVKKDTDFKLNELRGKKSCHTGLGRSAGWNIPMAKLYKELPDPQESIQRAAANFFSASCVPCADQSSFPKLCQLCAGKGTDKCACSNHEPYFGYSGAFKCLMEGAGDVAFVKHSTVFDNLPNPEDRKNYELLCGDNTRKSVDDYQECYLAMVPSHAVVARTVGGKEDVIWELLNHAQEHFGKDKPDNFQLFQSPHGKDLLFKDSADGFLKIPSKMDFELYLGYEYVTALQNLRESKPPDSSKDECMVKWCAIGHQERTKCDRWSGFSGGAIECETAENTEECIAKIMKGEADAMSLDGGYLYIAGKCGLVPVLAENYKTEGESCKNTPEKGYLAVAVVKTSDANINWNNLKDKKSCHTAVDRTAGWNIPMGLLYSKINNCKFDEFFSAGCAPGSPRNSSLCALCIGSEKGTGKECVPNSNERYYGYTGAFRCLVEKGDVAFVKDQTVIQNTDGNNNEAWAKNLKKENFEVLCKDGTRKPVTDAENCHLARGPNHAVVSRKDKATCVEKILNKQQDDFGKSVTDCTSNFCLFQSNSKDLLFRDDTKCLASIAKKTYDSYLGDDYVRAMTNLRQCSTSKLLEACTFHKP
B2: rat transferrin: transferrin from rat (protein, UniProt P12346 20-698, looked up)
Serotransferrin: VPDKTVKWCAVSEHENTKCISFRDHMKTVLPADGPRLACVKKTSYQDCIKAISGGEADAITLDGGWVYDAGLTPNNLKPVAAEFYGSLEHPQTHYLAVAVVKKGTDFQLNQLQGKKSCHTGLGRSAGWIIPIGLLFCNLPEPRKPLEKAVASFFSGSCVPCADPVAFPQLCQLCPGCGCSPTQPFFGYVGAFKCLRDGGGDVAFVKHTTIFEVLPQKADRDQYELLCLDNTRKPVDQYEDCYLARIPSHAVVARNGDGKEDLIWEILKVAQEHFGKGKSKDFQLFGSPLGKDLLFKDSAFGLLRVPPRMDYRLYLGHSYVTAIRNQREGVCPEGSIDSAPVKWCALSHQERAKCDEWSVSSNGQIECESAESTEDCIDKIVNGEADAMSLDGGHAYIAGQCGLVPVMAENYDISSCTNPQSDVFPKGYYAVAVVKASDSSINWNNLKGKKSCHTGVDRTAGWNIPMGLLFSRINHCKFDEFFSQGCAPGYKKNSTLCDLCIGPAKCAPNNREGYNGYTGAFQCLVEKGDVAFVKHQTVLENTNGKNTAAWAKDLKQEDFQLLCPDGTKKPVTEFATCHLAQAPNHVVVSRKEKAARVSTVLTAQKDLFWKGDKDCTGNFCLFRSSTKDLLFRDDTKCLTKLPEGTTYEEYLGAEYLQAVGNIRKCSTSRLLEACTFHKS

What was measured:
Taq polymerase [1] = test: Mode III whole blood, globin PCR (KM-29/HRI-12) with inhibitor treatment; type: biochemical; settings: 250 μg bovine transferrin, 10 mM sodium bicarbonate; 25,000 to 0 cells; no product without treatment
Protocol: Generally, PCR was carried out using 175-200 μM dNTPS (deoxyribonucleoside 5'-triphosphates) and 0.5 to 1.0 μM primers. Five units/100 μl of Taq polymerase were used. PCR reactions were overlaid with 30-100 μl light mineral oil. A typical PCR cycle for HIV amplification using a Perkin-Elmer Cetus DNA Thermal Cycler (Part No. N8010150) was: denaturation at 95° C. for 30 seconds; annealing at 55° C. for 30 seconds; and extension at 72° C. for 1 minute. PCR cycles were normally carried out in this manner for 35 cycles followed by 7 minutes at 72° C.
In one case, amplification of globin sequences was performed using primer pair KM-29 (SEQ ID NO:10)and HRI-12 (SEQ ID NO:11) to give a 174 bp product within the human beta globin gene.
Whole blood samples were lysed with protease K (500 μg/ml, 55° C. for 1 hour). The enzyme was inactivated by heating (95°-100°C., 10 minutes). Aliquots corresponding to 25,000, 10,000, 5,000, 2,000, 1000, 500 and 0 cells were made. Bovine transferrin (250 μg) was added to each sample as well as the cofactor sodium bicarbonate (adjusted to 10 mM) and the reaction was incubated at room temperature for 30 minutes. Concentrated PCR reagents were then added to each sample to a final volume of 100 μl. […]

Taq polymerase [2] = test: HIV PCR after inhibitor treatment of whole blood lysate; type: biochemical; settings: with cofactor sodium bicarbonate
Protocol: The enzyme was inactivated by heating (95°-100° C., 10 minutes).

| Molecule | globin PCR product after inhibitor treatment (Taq polymerase [1]) | activity as interfering reagent (Taq polymerase [2]) |
| --- | --- | --- |
| B1 | decreasing product band corresponding to the decreasing amount of cells | – |
| B2 | – | does not work as an interfering reagent |

— patent US5654179A, “Nucleic acid preparation methods” (HRI Research, Inc., priority 1994, dated 1997)
